This note sets out measurements from publication PMC6006217.

The target of experiment [1] is FcγRI on HEK293/FcγRI cells (human) (UniProt P12314).
The target in experiment [2] is BGB-A317/IgG4_(S228P) (human). The experiment can be described thus: SPR; Biacore, human PD-1/His immobilised on a CM5 chip; the antibody captured on the PD-1/His surface; FcγRI injected over it. (In SPR one partner is held on a chip, and binding of the other changes the refractive index at the surface.)
Chain of BGB-A317/IgG4_(S228P) (human) (heavy, as listed by the source, chain 1 of 2): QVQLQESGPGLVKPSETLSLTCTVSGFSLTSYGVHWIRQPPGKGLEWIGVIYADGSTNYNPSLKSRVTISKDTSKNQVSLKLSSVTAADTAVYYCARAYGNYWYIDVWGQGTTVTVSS
Chain of BGB-A317/IgG4_(S228P) (human) (light, as listed by the source, chain 2 of 2): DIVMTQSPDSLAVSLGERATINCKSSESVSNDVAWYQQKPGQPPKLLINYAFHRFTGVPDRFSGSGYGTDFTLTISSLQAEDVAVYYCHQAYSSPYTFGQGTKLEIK

For the substance BGB-A317/IgG4_(S228P) (antibody), the IL-10 gene transcription (real-time PCR) in M2 macrophages seeded on PD-1-coated plates in the presence of the antibody, against huIgG baseline in experiment [1] was less than 5 fold.
As usually defined, the Kd is a measure of binding affinity in units of concentration. Higher therefore signals lower affinity. The koff is a measure of how fast the partners let go of each other. In general, kon refers to the rate constant with which the complex forms. Low readings indicate slow association, high ones fast association. In experiment [2], “human FcγRI (from UniProt P12314 16-292) (receptor)” displayed a Ka of 3.57e+08 M⁻¹, a Kd of 2.8 nM, a koff of 0.00199 s⁻¹ and a kon of 712000 M⁻¹ s⁻¹.
